Here are results for 3 molecules from patent US20120058906A1 (published 2012).

The target in experiment [1] is T1, rHuman P-Cadherin/Fc Chimera, CF (R&D Systems Cat#861-PC) (human, UniProt P22223 108-654).
T1 construct: Purchased Fc chimera; not shown: Fc portion of the purchased chimera
Description: MSD ECL multi-spot plate, antigen immobilized; Fab 8 nM; blank spot 479.

The target in experiment [2] is T2, rHuman EGF R/Fc Chimera, CF (R&D Systems Cat#344-ER) (human, UniProt P00533 25-645).
T2 construct: Purchased Fc chimera; not shown: Fc portion of the purchased chimera
The experiment is described as above.

Experiment [3] has as its target T3, rHuman HGF R/c-MET/Fc Chimera, CF (R&D Systems Cat#358-MT/CF) (human, UniProt P08581 25-932).
T3 construct: Purchased Fc chimera; also called HGF R/Fc; not shown: Fc portion of the purchased chimera
The experiment is described as above.

The target in experiment [4] is T4, rHuman CD44/Fc Chimera, CF (R&D Systems Cat#3660-CD) (human, UniProt P16070 21-220).
T4 construct: Bought Fc chimera; Fc part of the bought chimera not given
Briefly: ECL (MSD Multi-Spot) binding, antigen spotted on plate; Fab 500 nM.

Experiment [5] deals with T5, rHuman IGF-1 sR, CF (R&D Systems Cat#391-GR) (human, UniProt P08069 31-932).
T5 construct: Bought soluble receptor; also called insulin-like growth factor-1 soluble receptor; IGF-R1
The experiment is described as above.

The target of experiment [6] is T6, rHuman P-Cadherin/Fc Chimera, CF (R&D Systems Cat#861-PC) (human, UniProt P22223 108-654).
T6 construct: Bought Fc chimera; Fc part of the bought chimera not given
Described as above.

Experiment [7] concerns the target T7, rHuman Erythropoietin R/Fc Chimera, CF (R&D Systems Cat#963-ER) (human, UniProt P19235 25-250).
T7 construct: Bought Fc chimera; also called EPO R/Fc; erythropoietin receptor; Fc part of the bought chimera not given
T7 sequence: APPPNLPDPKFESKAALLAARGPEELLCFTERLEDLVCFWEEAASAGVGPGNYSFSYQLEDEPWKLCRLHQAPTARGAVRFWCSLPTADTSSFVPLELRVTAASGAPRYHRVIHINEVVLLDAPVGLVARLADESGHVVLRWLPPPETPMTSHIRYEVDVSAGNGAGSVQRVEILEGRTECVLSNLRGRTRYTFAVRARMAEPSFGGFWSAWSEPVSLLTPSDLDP
Described as above.

Experiment [8] deals with T8, Recombinant Human DLL4 (R&D Systems Cat#1506-D4/CF) (human, UniProt Q9NR61 27-524).
T8 construct: Bought recombinant protein; also called delta-like protein 4
Described as above.

In experiment [9] the target is T9, rHuman ErbB2/Fc Chimera, CF (R&D Systems Cat#1129-ER) (human, UniProt P04626 23-652).
T9 construct: Bought Fc chimera; also called human epidermal growth factor 2 receptor; HER2/neu; Fc part of the bought chimera not given
Described as above.

The target of experiment [10] is T10, rHuman EGF R/Fc Chimera, CF (R&D Systems Cat#344-ER) (human, UniProt P00533 25-645).
T10 construct: Bought Fc chimera; also called epidermal growth factor receptor; Fc part of the bought chimera not given
The description is as above.

In experiment [11] the target is T11, rHuman HGF R/c-MET/Fc Chimera, CF (R&D Systems Cat#358-MT/CF) (human, UniProt P08581 25-932).
T11 construct: Bought Fc chimera; also called HGF R/Fc; hepatocyte growth factor receptor; Fc part of the bought chimera not given
The experiment is described as above.

For experiment [12], the target named is T12, rHuman Notch-1/Fc Chimera, CF (R&D Systems Cat#3647-TK) (human, UniProt P46531 19-526).
T12 construct: Bought Fc chimera; Fc part of the bought chimera not given
The description is as above.

In experiment [13] the target is T13, rHuman IGF-1 sR (insulin-like growth factor-1 soluble receptor), CF (R&D Systems Cat#391-GR) (human, UniProt P08069 31-932).
T13 construct: Bought soluble receptor; also called IGF-R1
Description: ECL (MSD multi-spot), antigen on plate, Fab 2 nM.

In experiment [14] the target is T14, rHuman P-Cadherin/Fc Chimera, CF (R&D Systems Cat#861-PC) (human, UniProt P22223 108-654).
T14 construct: Bought Fc chimera; also called CDH3; not shown: Fc of the bought chimera
Description: ECL (MSD multi-spot), antigen on plate, Fab 2 nM.

Experiment [15] deals with T15, rHuman Erythropoietin R/Fc Chimera, CF (R&D Systems Cat#963-ER) (human, UniProt P19235 25-250).
T15 construct: Bought Fc chimera; also called EPO R/Fc; Epo R; not shown: Fc of the bought chimera
T15 sequence: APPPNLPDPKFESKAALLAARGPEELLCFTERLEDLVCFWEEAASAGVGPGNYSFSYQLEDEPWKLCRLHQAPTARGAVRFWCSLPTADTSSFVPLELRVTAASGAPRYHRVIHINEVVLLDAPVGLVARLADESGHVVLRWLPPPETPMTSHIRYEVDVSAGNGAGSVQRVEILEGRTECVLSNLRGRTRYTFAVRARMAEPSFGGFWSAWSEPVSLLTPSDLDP
Briefly: ECL (MSD multi-spot), antigen on plate, Fab 2 nM.

For experiment [16], the target named is T16, Recombinant Human DLL4 (R&D Systems Cat#1506-D4/CF) (human, UniProt Q9NR61 27-524).
T16 construct: Bought recombinant protein; also called delta-like protein 4
Description: ECL (MSD multi-spot), antigen on plate, Fab 2 nM.

In experiment [17] the target is T17, rHuman ErbB2/Fc Chimera, CF (R&D Systems Cat#1129-ER) (human, UniProt P04626 23-652).
T17 construct: Bought Fc chimera; also called HER2/neu; not shown: Fc of the bought chimera
Briefly: ECL (MSD multi-spot), antigen on plate, Fab 2 nM.

Experiment [18] concerns the target T18, rHuman HGF R/c-MET/Fc Chimera, CF (R&D Systems Cat#358-MT/CF) (human, UniProt P08581 25-932).
T18 construct: Bought Fc chimera; also called HGF R/Fc; not shown: Fc of the bought chimera
Description: ECL (MSD multi-spot), antigen on plate, Fab 2 nM.

The target in experiment [19] is T19, rHuman Notch-1/Fc Chimera, CF (R&D Systems Cat#3647-TK) (human, UniProt P46531 19-526).
T19 construct: Bought Fc chimera; not shown: Fc of the bought chimera
Description: ECL (MSD multi-spot), antigen on plate, Fab 2 nM.
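Further: blank spot per well as comparator with Hit at signal to blank ratio of 4 or more.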

B1: Fab VH5-51_IGHD5-18*01>3_IGHJ4*01_G100R & V3-4_IGLJ1*01 (Fab, V domains shown)
VH: EVQLVQSGAEVKKPGESLKISCKGSGYSFTSYWIGWVRQMPGKGLEWMGIIYPGDSDTRYSPSFQGQVTISADKSISTAYLQWSSLKASDTAMYYCARRRYSYGYDYFDYWGQGTLVTVSS
VL: QTVVTQEPSFSVSPGGTVTLTCGLSSGSVSTSYYPSWYQQTPGQAPRTLIYSTNTRSSGVPDRFSGSILGNKAALTITGAQADDESDYYCVLYMGSGISYVFGTGTKVTVL
notes: It was expressed as a Fab: CH1 with tags from Plasmid A and lambda CL from Plasmid E; also called Fab No. 23
As for B1, the values for the ECL signal in experiment [1], in experiment [2] and in experiment [3] were 669 ECL signal, 1080 ECL signal and 1240 ECL signal, respectively.

B2: Fab VH1-46_IGHD6-6*01_IGHJ1*01_S102A_S103P_S104F_H111Y & L6_IGKJ1*01 (Fab, V domains shown)
VH: QVQLVQSGAEVKKPGASVKVSCKASGYTFTSYYMHWVRQAPGQGLEWMGIINPSGGSTSYAQKFQGRVTMTRDTSTSTVYMELSSLRSEDTAVYYCAREEYAPFSAEYFQYWGQGTLVTVSS
VL: not shown
notes: Fab made in E. coli; The heavy chain also carries the CH1 with Flag and His tags of Plasmid A, and the light chain the kappa constant region of Plasmid C
For the molecule B2, the ECL signal was 664 in [4]; 592 in experiment [5]; 939 in experiment [6]; 1210 in experiment [7]; 93100 in [8]; 713 in experiment [9]. The figures for the ECL signal in experiment [10], in experiment [11] and in experiment [12] were 898, 523 and 644, respectively.

B3: Fab VH1-46_IGHD6-6*01_IGHJ1*01_S102A_S103P_S104F & L6_IGKJ1*01_S30N (Fab, V domains shown)
VH: QVQLVQSGAEVKKPGASVKVSCKASGYTFTSYYMHWVRQAPGQGLEWMGIINPSGGSTSYAQKFQGRVTMTRDTSTSTVYMELSSLRSEDTAVYYCAREEYAPFSAEYFQHWGQGTLVTVSS
VL: EIVLTQSPATLSLSPGERATLSCRASQSVNSYLAWYQQKPGQAPRLLIYDASNRATGIPARFSGSGSGTDFTLTISSLEPEDFAVYYCQQRSNWPPWTFGQGTKVEIKR
notes: Fab
As to B3, the ECL signal in experiment [13] is 296 ECL signal; in experiment [14], 395 ECL signal; in experiment [15], 294 ECL signal; in experiment [16] it was 11400 ECL signal; in experiment [17] it was 138 ECL signal; in experiment [18] it was 207 ECL signal. The ECL signal in [19] was 274 ECL signal.
